The values below are quoted from earlier work in PMC3373146.

Where two headings read alike, the source gives them in different places.

Series [1] has as its target Kv2.1 (UniProt Q14721).
Series [2] addresses Kv2.1 (UniProt Q14721). The source holds these as a separate data set.
Series [3] deals with KCa2.2 (SK2) (UniProt Q9H2S1).
Series [4] concerns the target KCa2.1 (SK1) (UniProt Q92952).
For series [5], the target named is KCa2.3 (SK3) (UniProt Q9UGI6).
KCa2.3 (SK3), sequence (Q9UGI6 whole entry): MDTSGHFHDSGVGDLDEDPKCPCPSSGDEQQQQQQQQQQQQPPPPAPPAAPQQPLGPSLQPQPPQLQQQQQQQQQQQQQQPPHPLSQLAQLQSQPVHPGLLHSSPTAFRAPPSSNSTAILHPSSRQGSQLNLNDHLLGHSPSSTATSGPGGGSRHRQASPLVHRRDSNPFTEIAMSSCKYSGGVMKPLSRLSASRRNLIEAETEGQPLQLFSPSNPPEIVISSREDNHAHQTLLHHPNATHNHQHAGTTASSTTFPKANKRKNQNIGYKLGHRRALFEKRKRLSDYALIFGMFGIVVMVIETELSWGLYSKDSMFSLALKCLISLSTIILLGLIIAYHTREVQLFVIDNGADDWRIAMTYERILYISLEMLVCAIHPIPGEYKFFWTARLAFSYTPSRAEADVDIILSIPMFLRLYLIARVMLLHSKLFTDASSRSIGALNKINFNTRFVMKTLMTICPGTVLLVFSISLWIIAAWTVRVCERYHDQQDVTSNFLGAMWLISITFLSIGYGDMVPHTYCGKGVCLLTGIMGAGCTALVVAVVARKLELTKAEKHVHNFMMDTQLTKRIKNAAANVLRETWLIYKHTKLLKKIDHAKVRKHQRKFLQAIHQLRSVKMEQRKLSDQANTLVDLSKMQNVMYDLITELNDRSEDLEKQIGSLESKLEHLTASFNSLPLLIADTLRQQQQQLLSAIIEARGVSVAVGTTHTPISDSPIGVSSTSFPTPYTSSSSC

Kv2.1, sequence (Q14721 whole entry): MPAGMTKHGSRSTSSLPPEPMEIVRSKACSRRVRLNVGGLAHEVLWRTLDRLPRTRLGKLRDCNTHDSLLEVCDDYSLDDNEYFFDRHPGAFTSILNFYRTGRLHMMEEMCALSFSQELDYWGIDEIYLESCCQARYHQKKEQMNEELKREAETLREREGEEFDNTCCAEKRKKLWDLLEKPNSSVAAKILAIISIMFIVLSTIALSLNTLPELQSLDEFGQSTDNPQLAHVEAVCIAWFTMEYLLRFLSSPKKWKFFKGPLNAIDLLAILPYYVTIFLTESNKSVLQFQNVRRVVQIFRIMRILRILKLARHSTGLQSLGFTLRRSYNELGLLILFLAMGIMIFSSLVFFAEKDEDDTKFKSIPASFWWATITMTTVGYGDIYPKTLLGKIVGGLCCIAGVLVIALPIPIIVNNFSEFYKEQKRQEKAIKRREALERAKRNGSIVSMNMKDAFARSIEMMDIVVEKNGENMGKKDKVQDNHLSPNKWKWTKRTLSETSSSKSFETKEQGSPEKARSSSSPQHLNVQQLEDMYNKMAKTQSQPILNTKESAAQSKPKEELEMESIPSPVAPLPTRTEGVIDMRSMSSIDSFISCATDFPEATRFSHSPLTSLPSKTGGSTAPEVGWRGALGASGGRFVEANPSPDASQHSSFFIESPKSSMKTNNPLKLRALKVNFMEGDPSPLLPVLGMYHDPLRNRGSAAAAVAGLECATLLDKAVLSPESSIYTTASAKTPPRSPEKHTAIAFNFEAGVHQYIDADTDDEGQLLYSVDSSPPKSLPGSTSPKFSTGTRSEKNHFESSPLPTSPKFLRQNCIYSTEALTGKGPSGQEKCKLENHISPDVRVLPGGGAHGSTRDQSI
hanatoxin 2, sequence (P56853 whole entry): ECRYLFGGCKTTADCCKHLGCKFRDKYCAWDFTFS
KCa2.2 (SK2), sequence (Q9H2S1 whole entry): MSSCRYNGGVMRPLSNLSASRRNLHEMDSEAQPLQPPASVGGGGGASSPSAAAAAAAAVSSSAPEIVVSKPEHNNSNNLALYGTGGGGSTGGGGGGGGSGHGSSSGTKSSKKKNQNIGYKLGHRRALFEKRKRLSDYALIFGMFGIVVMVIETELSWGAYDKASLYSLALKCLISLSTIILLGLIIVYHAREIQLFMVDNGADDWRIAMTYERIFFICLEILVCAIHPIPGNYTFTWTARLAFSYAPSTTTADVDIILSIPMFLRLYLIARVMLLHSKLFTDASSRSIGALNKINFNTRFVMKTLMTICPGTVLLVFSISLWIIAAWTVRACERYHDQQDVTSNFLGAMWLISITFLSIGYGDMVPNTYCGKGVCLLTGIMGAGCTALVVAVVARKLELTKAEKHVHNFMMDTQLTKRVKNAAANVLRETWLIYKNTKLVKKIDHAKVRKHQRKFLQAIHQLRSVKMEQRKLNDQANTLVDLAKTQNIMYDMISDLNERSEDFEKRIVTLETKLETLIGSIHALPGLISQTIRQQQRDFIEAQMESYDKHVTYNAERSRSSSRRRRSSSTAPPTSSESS
KCa2.1 (SK1), sequence (Q92952 whole entry): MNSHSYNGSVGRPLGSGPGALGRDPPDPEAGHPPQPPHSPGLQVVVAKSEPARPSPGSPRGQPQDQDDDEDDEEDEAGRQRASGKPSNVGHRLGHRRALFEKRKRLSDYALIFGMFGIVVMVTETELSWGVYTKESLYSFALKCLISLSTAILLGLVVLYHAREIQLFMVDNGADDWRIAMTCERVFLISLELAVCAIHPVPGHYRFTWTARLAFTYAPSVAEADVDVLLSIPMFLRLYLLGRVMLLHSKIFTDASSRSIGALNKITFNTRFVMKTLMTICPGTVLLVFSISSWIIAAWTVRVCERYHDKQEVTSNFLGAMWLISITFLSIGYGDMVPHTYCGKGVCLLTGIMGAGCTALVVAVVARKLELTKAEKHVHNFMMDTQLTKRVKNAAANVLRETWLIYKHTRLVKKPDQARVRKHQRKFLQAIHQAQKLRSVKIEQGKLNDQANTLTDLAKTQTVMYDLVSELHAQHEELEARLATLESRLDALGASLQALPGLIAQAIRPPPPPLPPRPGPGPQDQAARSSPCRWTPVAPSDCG
hanatoxin 1, sequence (P56852 50-84): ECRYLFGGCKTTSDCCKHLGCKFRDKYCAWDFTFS

In the case of hanatoxin 1 (from UniProt P56852), in series [1], the Kd was 42 nM.
For the substance hanatoxin 2 (from UniProt P56853), the Kd in series [2] was 42 nM.
For the substance apamin (from UniProt P01500), the figures for the Kd in series [3], in series [4] and in series [5] were 0.004 nM, 0.39 nM and 0.011 nM, respectively.
